Test results as given in patent US20090202526A1 (RINAT NEUROSCIENCE, published 2009).

Columns and labels:
[1] = biological target: T1, Human trkC-Fc fusion protein (human, UniProt Q16288 32-429); assay: BIAcore SPR, human trkC-Fc on chip; KD calculated from koff with 2256 kon 5E5 1/Ms
T1 construct: Immobilised on CM5 chip for BIAcore; also called htrkC; not shown: Fc part not described

[2] = biological target: T1, Human trkC-Fc fusion protein; assay: BIAcore SPR, Fab over immobilised human trkC-Fc
Protocol: (§1) Affinities of anti-trkC Fabs and monoclonal antibodies were determined using the BIAcore 3000™ surface plasmon resonance (SPR) system (BIAcore, INC, Piscaway N.J.). CM5 chips were activated with N-ethyl-N′-(3-dimethylaminopropyl)-carbodiimide hydrochloride (EDC) and N-hydroxysuccinimide (NHS) according to the supplier's instructions. Human or rat trkC-Fc fusion protein was diluted into 10 mM sodium acetate pH 5.0 and injected over the activated chip at a concentration of 0.005 mg/mL. Using variable flow time across the individual chip channels, two ranges of antigen density were achieved: 200-400 response units (RU) for detailed kinetic studies and 500-1000 RU for screening assays. The chip was blocked with ethanolamine. […] HBS-EP buffer (0.01M HEPES, pH 7.4, 0.15 NaCl, 3 mM EDTA, 0.005% Surfactant P20) was used as running buffer for all the BIAcore assays. […] The concentrations of the Fab proteins are determined by ELISA and/or SDS-PAGE electrophoresis using a Fab of known concentration (as determined by amino acid analysis) as a standard. Kinetic association rates (kₒₙ) and dissociation rates (koff) are obtained simultaneously by fitting the data to a 1:1 Langmuir binding model (Karlsson, R. Roos, H. Fagerstam, L. Petersson, B. (1994). Methods Enzymology 6. 99-110) using the BlAevaluation program. Equilibrium dissociation constant (KD) values are calculated as koff/kₒₙ.
We prepared antibody clones bearing the CDR and/or framework region substitution mutations shown in Table 1 and determine KD and other kinetic parameters using BIAcore analysis as described herein.

[3] = biological target: T2, Rat trkC-Fc fusion protein (rat, UniProt Q03351 32-429); assay: BIAcore SPR, Fab over immobilised rat trkC-Fc
T2 construct: Immobilised on CM5 chip for BIAcore; not shown: Fc part not described
Protocol: as §1

Binder	Kd [1]	koff [2]	Kd [3]	koff [3]	kon [3]	Kd [2]	kon [2]
Fab clone 129(T8) (Fab, V domains shown) VH: QVQLVQSGAEVKKPGASVKVSCKASGYTFTSYWMHWVRQAPGQGLEWMGEIYPSNGRTNYNEKFKSRATMTGDKSTSTVYMELSSLRSEDTAVYYCARKYYYGNSRRSWYFDVWGQGTTVTVS VL: DIQMTQSPSSLSASVGDRVTITCRASESVDNYGISFMNWYQQKPGKAPKLLIYAASNQGSGVPSRFSGSGSGTDFTFTISSLQPEDIATYYCQQSKTVPRTFGQGTKLEIKR	3 nM	0.0016 s⁻¹	–	–	–	–	–
Fab clone 129(T8)(H8) (Fab, V domains shown) VH: QVQLVQSGAEVKKPGASVKVSCKASGYTFTSYRIHWVRQAPGQGLEWMGEIYPSNSRTNYNEKFKSRATMTGDKSTSTVYMELSSLRSEDTAVYYCARKYYYGNSRRSWYFDVWGQGTTVTVS VL: DIQMTQSPSSLSASVGDRVTITCRASESVDNYGISFMTWYQQKPGKAPKLLIYAASNLGSGVPSRFSGSGSGTDFTFTISSLQPEDIATYYCQQSKTVPRTFGQGTKLEIKR	1.2 nM	0.0006 s⁻¹	–	–	–	–	–
Fab clone 129(T6) (Fab, V domains shown) VH: QVQLVQSGAEVKKPGASVKVSCKASGYTFTSYWMHWVRQAPGQGLEWMGEIYPSNGRTNYNEKFKSRVTMTGDTSTSTVYMQLSSLRSEDTAVYYCARKYYYGNSKRSWYFDVWGQGTTVTVS VL: DIQMTQSPSSLSASVGDRVTITCRASESVDNYGISFMNWYQQKPGQAPKLLIYAASNQGSGVPSRFSGSGSGTDFTFTISSLQPEDIATYYCQQSKEVPRTFGQGTKLEIKR	6.4 nM	0.0034 s⁻¹	–	–	–	–	–
Fab clone 129(C2) (Fab, V domains shown) VH: QVQLVQSGAEVKKPGASVKVSCKASGYTFTSYWMHWVRQAPGQGLEWMGEIYPSNGRTNYNEKFKSRVTMTGDTSTSTVYMQLSSLRSEDTAVYYCARKYYYGNSKRSWYFDVWGQGTTVTVS VL: DIQMTQSPSSLSASVGDRVTITCRASESVDNYGISFMNWYQQKPGQPPKLLIYAASNQGSGVPSRFSGTGSGTDFTFTISSLQPEDIATYYCQQSKEVPRTFGQGTKLEIKR	4.7 nM	0.0025 s⁻¹	–	–	–	–	–
Fab clone 129(T8)(H8xE10)(10B)(C7) (Fab, V domains shown) VH: QVQLVQSGAEVKKPGASVKVSCKASGYTFTSYRIHWVRQAPGQGLEWMGEIYPSNTRTNYNEKFKSRVTMTRDTSTSTVYMELSSLRSEDTAVYYCARKYYYGNTRRSWYFDVWGQGTTVTVS VL: DIQMTQSPSSLSASVGDRVTITCRASESIDNYGISFLAWYQQKPGKAPKLLIYAASNRGSGVPSRFSGSGSGTDFTFTISSLQPEDIATYYCQQSKTVPRTFGQGTKLEIKR	–	0.00047 s⁻¹	39 nM	0.03 s⁻¹	780000 M⁻¹ s⁻¹	1.1 nM	420000 M⁻¹ s⁻¹
Fab clone 129(T26) (Fab, V domains shown) VH: QVQLVQSGAEVKKPGASVKVSCKASGYTFTSYWMHWVRQAPGQGLEWMGEIYPSNGRTNYNEKFKSRVTMTLDKSTSTVYMQLSSLRSEDTAVYYCARKYYYGNSRRSWYFDVWGQGTTVTVS VL: DIQMTQSPSSLSASVGDRVTITCRASESVDNYGISFMNWYQQKPGKPPKLLIYAASNQGSGVPSRFSGSGSGTDFTFTISSLQPEDIATYYCQQSKAVPRTFGQGTKLEIKR	2.3 nM	0.0012 s⁻¹	–	–	–	–	–
Fab clone 129(T8)(H8xE10)(10B)(E2) (Fab, V domains shown) VH: QVQLVQSGAEVKKPGASVKVSCKASGYTFTSYRIHWVRQAPGQGLEWMGEIYPSNGRTNYNEKFKSRVTMTRDTSTSTVYMELSSLRSEDTAVYYCARKYYYGNTRRSWYFDVWGQGTTVTVS VL: DIQMTQSPSSLSASVGDRVTITCRASESIDNYGISFLAWYQQKPGKAPKLLIYAASNRGSGVPSRFSGSGSGTDFTFTISSLQPEDIATYYCQQSKTVPRTFGQGTKLEIKR	–	0.00036 s⁻¹	6 nM	0.0094 s⁻¹	1.5e+06 M⁻¹ s⁻¹	0.25 nM	1.4e+06 M⁻¹ s⁻¹
Fab clone 129(C36) (Fab, V domains shown) VH: QVQLVQSGAEVKKPGASVKVSCKASGYTFTSYWMHWVRQAPGQGLEWMGEIYPSNGRTNYNEKFKSRVTMTLDKSTSTVYMQLSSLRSEDTAVYYCARKYYYGNSRRSWYFDVWGQGTTVTVS VL: DIQMTQSPSSLSASVGDRVTITCRASESVDNYGISFMNWYQQKPGKPPKLLIYAASNQGSGVPSRFSGSGSGTDFTFTISSLQPEDIATYYCQQSKAVPRTFGQGTKLEIKR	3.8 nM	0.002 s⁻¹	–	–	–	–	–
Fab clone 129(T8)(E12) (Fab, V domains shown) VH: QVQLVQSGAEVKKPGASVKVSCKASGYTFTSYWLHWVRQAPGQGLEWMGEIYPSNSRTNYNEKFKSRATMTGDKSTSTVYMELSSLRSEDTAVYYCARKYYYGNSRRSWYFDVWGQGTTVTVS VL: DIQMTQSPSSLSASVGDRVTITCRASESVDSYGISFMNWYQQKPGKAPKLLIYAASNLGSGVPSRFSGSGSGTDFTFTISSLQPEDIATYYCQQSKTVPRTFGQGTKLEIKR	1.8 nM	0.0009 s⁻¹	–	–	–	–	–
Fab clone 129(T8)(E10) (Fab, V domains shown, Light chain changes are the same as in A5) VH: QVQLVQSGAEVKKPGASVKVSCKASGYTFTSYRLHWVRQAPGQGLEWMGEIYPSNGRTNYNEKFESRATMTGDKSTSTVYMELSSLRSEDTAVYYCARKYYYGNSRRSWYFDVWGQGTTVTVS VL: DIQMTQSPSSLSASVGDRVTITCRASESIDNYGISFLAWYQQKPGKAPKLLIYAASNRGSGVPSRFSGSGSGTDFTFTISSLQPEDIATYYCQQSKTVPRTFGQGTKLEIKR	3.2 nM	0.0016 s⁻¹	–	–	–	–	–
Fab clone 129(C28) (Fab, V domains shown) VH: QVQLVQSGAEVKKPGASVKVSCKASGYTFTSYWMHWVRQAPGQGLEWMGEIYPSNGRTNYNEKFKSRATMTGDTSTSTVYMQLSSLRSEDTAVYYCARKYYYGNSQRSWYFDVWGQGTTVTVS VL: DIQMTQSPSSLSASVGDRVTITCRASESVDNYGISFMNWYQQKPGQAPKLLIYAASNQGSGVPSRFSGSGSGTDFTFTISSLQPEDIATYYCQQSKTVPRTFGQGTKLEIKR	3.6 nM	0.0019 s⁻¹	–	–	–	–	–
Fab clone 129(T34) (Fab, V domains shown) VH: QVQLVQSGAEVKKPGASVKVSCKASGYTFTSYWMHWVRQAPGQGLEWMGEIYPSNGRTNYNEKFKSRVTMTRDTSTSTVYMQLSSLRSEDTAVYYCARKYYYGNSRRSWYFDVWGQGTTVTVS VL: DIQMTQSPSSLSASVGDRVTITCRASESVDNYGISFMNWYQQKPGQPPKLLIYAASNQGSGVPSRFSGSGSGTDFTFTISSLQPEDIATYYCQQSKTVPRTFGQGTKLEIKR	2.3 nM	0.0012 s⁻¹	–	–	–	–	–
Fab clone 129(T8)(H9) (Fab, V domains shown) VH: QVQLVQSGAEVKKPGASVKVSCKASGYTFTSYWRHWVRQAPGQGLEWMGEIYPSNGRTNYNEKFKSRATMTGDKSTSTVYMELSSLRSEDTAVYYCARKYYYGNSRRSWYFDVWGQGTTVTVS VL: DIQMTQSPSSLSASVGDRVTITCRASESVDNYGISFMNWYQQKPGKAPKLLIYAASNRGSGVPSRFSGSGSGTDFTFTISSLQPEDIATYYCQQSKTVPRTFGQGTKLEIKR	3 nM	0.0015 s⁻¹	–	–	–	–	–
Fab clone 129(C16) (Fab, V domains shown) VH: QVQLVQSGAEVKKPGASVKVSCKASGYTFTSYWMHWVRQAPGQGLEWMGEIYPSNGRTNYNEKFKSRVTMTLDTSTSTVYMQLSSLRSEDTAVYYCARKYYYGNSKRSWYFDVWGQGTTVTVS VL: DIQMTQSPSSLSASVGDRVTITCRASESVDNYGISFMNWYQQKPGKPPKLLMYAASNQGSGVPSRFSGSGSGTDFTFTISSLQPEDIATYYCQQSKEVPRTFGQGTKLEIKR	4.7 nM	0.0025 s⁻¹	–	–	–	–	–
Fab clone 129(T8)(H8xE10)(9A) (Fab, V domains shown) VH: QVQLVQSGAEVKKPGASVKVSCKASGYTFTSYRIHWVRQAPGQGLEWMGEIYPSNSRTNYNEKFKSRATMTRDKSTSTVYMELSSLRSEDTAVYYCARKYYYGNSRRSWYFDVWGQGTTVTVS VL: DIQMTQSPSSLSASVGDRVTITCRASESIDNYGISFLAWYQQKPGKAPKLLIYAASNRGSGVPSRFSGSGSGTDFTFTISSLQPEDIATYYCQQSKTVPRTFGQGTKLEIKR	0.6 nM	0.0003 s⁻¹	–	–	–	–	–
Fab clone 129(C14) (Fab, V domains shown) VH: QVQLVQSGAEVKKPGASVKVSCKASGYTFTSYWMHWVRQAPGQGLEWMGEIYPSNGRTNYNEKFKSRVTMTRDKSTSTVYMHLSSLRSEDTAVYYCARKYYYGNSRRSWYFDVWGQGTTVTVS VL: DIQMTQSPSSLSASVGDRVTITCRASESVDNYGISFMNWYQQKPGQAPKLLIYAASNQGSGVPSRFSGSGSGTDFTFTISSLQPEDIATYYCQQSKEVPRTFGQGTKLEIKR	3.2 nM	0.0017 s⁻¹	–	–	–	–	–
Fab clone 129(C26) (Fab, V domains shown) VH: QVQLVQSGAEVKKPGASVKVSCKASGYTFTSYWMHWVRQAPGQGLEWMGEIYPSNGRTNYNEKFKSRVTMTGDKSTSTVYMELSSLRSEDTAVYYCARKYYYGNSSRSWYFDVWGQGTTVTVS VL: DIQMTQSPSSLSASVGDRVTITCRASESVDNYGISFMNWYQQKPGQAPKLLIYAASNQGSGVPSRFSGSGSGTDFTFTISSLQPEDIATYYCQQSKSVPRTFGQGTKLEIKR	13.2 nM	0.007 s⁻¹	–	–	–	–	–
